Results: article PMC8096850, “Structure of the full-length human Pannexin1 channel and insights into its role in pyroptosis” (Cell Discovery, 2021)

What was measured:
[1] = STED immunofluorescence, THP-1-derived macrophages; conditions: glycan lost; control: overexpressed WT hPANX1
[2] = target: the molecule itself; experiment: cryo-EM structure; single-particle cryo-EM of purified hPANX1 at about 8 mg/ml in 20 mM Hepes pH 7.4, 150 mM NaCl, 0.1% digitonin; C7 symmetry; 3.15 Å

B1: human Pannexin1 (hPANX1): N255Q (protein)
parent chain: MAIAQLATEYVFSDFLLKEPTEPKFKGLRLELAVDKMVTCIAVGLPLLLISLAFAQEISIGTQISCFSPSSFSWRQAAFVDSYCWAAVQQKNSLQSESGNLPLWLHKFFPYILLLFAILLYLPPLFWRFAAAPHICSDLKFIMEELDKVYNRAIKAAKSARDLDMRDGACSVPGVTENLGQSLWEVSESHFKYPIVEQYLKTKKNSNNLIIKYISCRLLTLIIILLACIYLGYYFSLSSLSDEFVCSIKSGILRNDSTVPDQFQCKLIAVGIFQLLSVINLVVYVLLAPVVVYTLFVPFRQKTDVLKVYEILPTFDVLHFKSEGYNDLSLYNLFLEENISEVKSYKCLKVLENIKSSGQGIDPMLLLTNLGMIKMDVVDGKTPMSAEMREEQGNQTAELQGMNIDSETKANNGEKNARQRLLDSSC
Question: With B1 as the protein, how does the localisation_or_trafficking [1] read?
Answer: Its localisation_or_trafficking is “changes”.

B2: full-length human Pannexin1 with a Strep-tag II inserted after V172 (natural protein, UniProt Q96RD7 1-426, looked up)
chain: B1 parent chain
modifications: N-linked glycan at N255 (two N-acetylglucosamine and eight mannose)
notes: Pannexin1 (PANX1), Homo sapiens, full length; Homo-heptamer; Met1 is absent from the deposited hPANX1-MD model; The termini and the intracellular linker of the model rest on a locally sharpened map and MD flexible fitting; also called hPANX1; PANX1
Question: For B2, which “stoichiometry N” value [2] is on record?
Answer: Its value is 7.
